From patent US20110091971A1, “Differentiation of Pluripotent Stem Cells” (priority 2008, published 2011)
Where a chain is given by its changes, count along the chain named. Several values for one entry are separate records, joined by “and”; a condition that tells them apart may be missing. Equal values may be shown once.

B1: ACTN1: wild type Activin A mature protein (SwissProt/UniProt: P08476), SEQ ID 2, expressed from applicant's construct (protein)
chain: GLECDGKVNICCKKQFFVSFKDIGWNDWIIAPSGYHANYCEGECPSHIAGTSGSSLSFHSTVINHYRMRGHSPFANLKSCCVPTKLRPMSMLYYDDGQNIIKKDIQNMIVEECGCS
B2: ACTN4: activin A variant peptide, SEQ ID 5 (protein)
chain: B1 chain with I10L, F16L, Y39H, E41S, E43L, A75S, N76D, L77M, K78G, S79A
B3: ACTN48: activin A variant peptide, SEQ ID 49 (protein)
chain: B1 chain with I10L, F16N, Y39E, E41S, E43L, L77M, K78G, S79A, V82I

Test system: H1 or H9 human embryonic stem cells
Assay: Activin A bioassay: differentiation of human embryonic stem cells to definitive endoderm, cell number and SOX17 intensity by high content analysis (96-well, four days);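 for Cell Number average: Raw total cell count per well from high content imaging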;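 for Sox 17 Intensity average: total fluorescence of the cell multiplied by cell area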
Assay type: cell-based
Outline: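 Read-out was cell count and integrated SOX17 immunofluorescence by high-content imaging, with each well divided by the mean of the 100 ng/ml activin A control. Over the four-day culture, test samples were given in DMEM:F12 with 0.5% FCS plus 20 ng/ml Wnt3a for the first two days and in 2% FCS alone for the last two. Cells were H1 or H9 hESC clusters grown on Matrigel.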

[1] = concentrated supernatant (10x; ACTD3 4x), assay dilution 1:20
[2] = supernatant concentration 1x, assay dilution 1:20
[3] = supernatant concentration 10x, assay dilution 1:20
[4] = supernatant concentration 10x, assay dilution 1:20, assay plates #007, #009, #010
[5] = supernatant concentration 10x, assay dilution 1:40
[6] = supernatant concentration 10x, assay dilution 1:40, control = R&D Sys Activin A 100 ng/ml on same plate
[7] = supernatant concentration 50x, assay dilution 1:20, assay plates #008, #009
[8] = supernatant concentration 50x, assay dilution 1:20, control = R&D Sys Activin A 100 ng/ml on same plate
[9] = supernatant concentration 10x, assay dilution 1:20, control = R&D Sys Activin A 100 ng/ml on same plate

| Molecule | Cell Number average [2] | Cell Number average [3] | Cell Number average [4] | Cell Number average [5] | Sox 17 Intensity average [5] | Sox 17 Intensity % of control [6] | Cell Number average [7] | Sox 17 Intensity average [7] | Sox 17 Intensity % of control [8] | Sox 17 Intensity % of control [9] | other results |
| --- | --- | --- | --- | --- | --- | --- | --- | --- | --- | --- | --- |
| B1 | 4284 and 5466 | 7083 and 9254 | 12543 and 11568 and 15112 | 5924 | 1.10E+08 | 480.5% | 13673 | 2.60E+08 | 470.1% | – | activity in the cell-based assay, as judged by cell number and SOX17 intensity increases (ACTN 1 pUnder construct versus OriGene wildtype construct, CHO-S or HEK293-F supernatants): greater activity; expression/activity of supernatant measured by SOX17 expression levels (CHOS cells, even after concentrating the supernatant): weak or negligible results; Cell Number average [1]: 12233; Sox 17 Intensity average [1]: 1.15E+08; Sox 17 Intensity % of control (concentrated supernatant (10x; ACTD3 4x), assay dilution 1:20, control = R&D Sys Activin A 100 ng/ml): 263%; expression/activity of supernatant measured by SOX17 expression levels (pUnder expression vector and HEK293F cells): significantly improved |
| B2 | 6380 | 8916 | – | 6548 | 2.075E+08 | 112.8% | – | – | – | 129.7% | higher potency of supernatant concentrated 10× relative to corresponding unconcentrated supernatant (primary screening, SOX17 expression, H1 cells): 2.6 fold; Sox 17 Intensity average [2]: 9.099E+07; Sox 17 Intensity % of control (supernatant concentration 1x, assay dilution 1:20, control = R&D Sys Activin A 100 ng/ml on same plate): 49.5%; Sox 17 Intensity average [3]: 2.385E+08 |
| B3 | – | – | 6030 | – | – | – | 8941 | 3.93E+07 | 157.8% | 71.1% | Sox 17 Intensity average [4]: 1.77E+07 |
